US12240882B2, “Fusion proteins comprising an engineered knottin peptide and uses thereof” (The Board of Trustees of the Leland Stanford Junior …, priority 2010, dated 2025)
Entries after “also recorded” stand apart in the source; their conditions may differ.

Assays:
[1] = target: T1, αvβ3 integrin (Homo sapiens, UniProt P05106+P06756); assay: Yeast display binding of EETI 2.5D-Axl fusion to soluble αvβ3 integrin; settings: 20, 50 or 100 nM αvβ3 integrin
[2] = circular dichroism
[3] = target: T2, Gas6 (Homo sapiens, UniProt Q14393); assay: Yeast display binding to Gas6 in presence of saturating αvβ3 integrin; settings: 20 or 100 nM Gas6 with 200 nM αvβ3 integrin
T2 sequence (Q14393 31-678): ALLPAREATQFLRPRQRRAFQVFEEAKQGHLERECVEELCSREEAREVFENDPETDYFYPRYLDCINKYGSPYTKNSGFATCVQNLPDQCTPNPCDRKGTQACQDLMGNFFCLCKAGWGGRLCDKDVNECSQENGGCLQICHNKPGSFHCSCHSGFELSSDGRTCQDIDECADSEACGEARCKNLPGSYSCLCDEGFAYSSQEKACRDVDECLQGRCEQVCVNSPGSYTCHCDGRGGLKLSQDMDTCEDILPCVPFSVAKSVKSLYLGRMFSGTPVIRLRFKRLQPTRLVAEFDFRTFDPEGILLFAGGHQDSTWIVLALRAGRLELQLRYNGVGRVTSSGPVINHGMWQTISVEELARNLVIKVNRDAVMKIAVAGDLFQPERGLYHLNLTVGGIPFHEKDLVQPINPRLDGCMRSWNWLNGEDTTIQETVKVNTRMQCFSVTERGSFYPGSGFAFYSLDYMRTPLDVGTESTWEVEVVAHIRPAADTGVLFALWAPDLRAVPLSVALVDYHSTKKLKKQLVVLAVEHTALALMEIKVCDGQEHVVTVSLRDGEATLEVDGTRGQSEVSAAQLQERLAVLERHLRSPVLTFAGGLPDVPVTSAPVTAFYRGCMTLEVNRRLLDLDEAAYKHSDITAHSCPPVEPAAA

[4] = target: T1, αvβ3 integrin; assay: Binding of soluble EETI 2.5D-Axl to K562-αvβ3 cells (flow cytometry); settings: soluble protein from Pichia pastoris
[5] = target: T1, αvβ3 integrin; assay: Yeast display binding to αvβ3 integrin in presence of saturating Gas6; settings: 100 or 200 nM αvβ3 integrin with 100 nM Gas6
[6] = target: T1, αvβ3 integrin; assay: cRGD competition of EETI 2.5D-Axl binding to K562-αvβ3 cells
[7] = target: T2, Gas6; assay: Yeast display binding of EETI 2.5D-Axl fusion to Gas6
[8] = Gel filtration chromatography of knottin-Fc; type: physicochemical
[9] = test system: PC3 cells; assay: Inhibition of PC3 cell adhesion to vitronectin by knottin-Fc proteins; type: cell-based; settings: knottin-Fc fusions, FIG. 10
Experimental: Negative control is an irrelevant protein.
In another tumor model, the ability of the knottin-Fc proteins to inhibit PC3 cell adhesion to the extracellular matrix (ECM) protein vitronectin was analyzed. […] As the inhibition of integrin-ECM adhesion induces caspase-mediated apoptosis, this biological mechanism will be explored in future studies.

[10] = test system: sk0v3 cells; assay: Binding of knottin-Fc proteins to sk0v3 cells; settings: measured against wild-type EETII-Fc
Experimental: The binding of the knottin-Fc proteins to tumor cell lines were then measured.

T1 sequence (P06756 31-889 limits assumed): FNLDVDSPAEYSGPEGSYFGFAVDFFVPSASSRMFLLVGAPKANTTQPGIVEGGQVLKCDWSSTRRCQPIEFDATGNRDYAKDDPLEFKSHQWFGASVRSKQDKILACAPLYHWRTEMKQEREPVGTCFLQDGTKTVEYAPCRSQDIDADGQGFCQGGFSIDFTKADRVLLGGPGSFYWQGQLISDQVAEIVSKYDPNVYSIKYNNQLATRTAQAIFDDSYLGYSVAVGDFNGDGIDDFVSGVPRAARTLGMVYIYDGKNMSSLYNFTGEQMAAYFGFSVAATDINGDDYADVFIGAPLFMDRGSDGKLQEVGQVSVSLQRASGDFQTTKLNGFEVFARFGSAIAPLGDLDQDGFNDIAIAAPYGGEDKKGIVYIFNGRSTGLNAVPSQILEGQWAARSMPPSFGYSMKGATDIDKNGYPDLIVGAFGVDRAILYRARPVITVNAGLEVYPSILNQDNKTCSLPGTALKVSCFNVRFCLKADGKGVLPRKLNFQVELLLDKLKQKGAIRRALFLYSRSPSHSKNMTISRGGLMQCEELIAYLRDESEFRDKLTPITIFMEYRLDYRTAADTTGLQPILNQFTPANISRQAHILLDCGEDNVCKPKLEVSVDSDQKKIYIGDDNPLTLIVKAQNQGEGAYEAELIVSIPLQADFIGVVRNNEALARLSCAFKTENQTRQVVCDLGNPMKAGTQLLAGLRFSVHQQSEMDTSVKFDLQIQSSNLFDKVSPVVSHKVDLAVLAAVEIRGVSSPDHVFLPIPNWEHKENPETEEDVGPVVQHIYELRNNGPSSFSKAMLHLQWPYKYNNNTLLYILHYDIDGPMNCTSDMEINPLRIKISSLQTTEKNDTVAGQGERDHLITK
T1 sequence (P06756 891-1048 partner limits assumed): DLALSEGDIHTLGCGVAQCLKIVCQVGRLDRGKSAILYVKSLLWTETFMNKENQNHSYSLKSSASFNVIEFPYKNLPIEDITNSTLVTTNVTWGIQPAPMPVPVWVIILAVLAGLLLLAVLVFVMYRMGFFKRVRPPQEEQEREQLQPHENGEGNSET
T1 sequence (P05106 27-788): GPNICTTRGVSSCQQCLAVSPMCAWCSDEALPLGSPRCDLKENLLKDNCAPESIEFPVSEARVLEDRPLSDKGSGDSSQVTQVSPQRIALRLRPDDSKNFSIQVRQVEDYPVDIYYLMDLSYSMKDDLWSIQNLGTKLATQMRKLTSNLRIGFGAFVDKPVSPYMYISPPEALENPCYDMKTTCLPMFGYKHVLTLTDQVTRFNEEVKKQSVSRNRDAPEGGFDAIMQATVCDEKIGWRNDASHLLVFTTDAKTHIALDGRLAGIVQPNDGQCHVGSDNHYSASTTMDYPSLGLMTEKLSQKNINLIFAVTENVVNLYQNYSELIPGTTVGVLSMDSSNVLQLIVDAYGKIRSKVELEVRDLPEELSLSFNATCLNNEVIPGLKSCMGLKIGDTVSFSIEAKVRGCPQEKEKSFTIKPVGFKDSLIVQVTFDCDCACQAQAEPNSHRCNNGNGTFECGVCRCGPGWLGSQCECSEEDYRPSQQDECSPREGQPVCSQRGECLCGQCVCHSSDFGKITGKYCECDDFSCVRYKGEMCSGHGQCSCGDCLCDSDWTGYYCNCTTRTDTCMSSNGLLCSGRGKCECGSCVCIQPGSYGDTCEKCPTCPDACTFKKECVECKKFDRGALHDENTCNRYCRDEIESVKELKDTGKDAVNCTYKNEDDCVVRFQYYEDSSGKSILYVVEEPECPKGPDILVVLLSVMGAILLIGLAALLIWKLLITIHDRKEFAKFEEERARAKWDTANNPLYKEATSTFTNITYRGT

B1: EETI 2.5D-Axl: EETI 2.5D directly fused to N-terminus of wt Axl Ig1 (amino acids 21-132), SEQ ID NO: 84 (protein)
chain: GCPQGRGDWAPTSCSQDSDCLAGCVCGPNGFCGSRGTQAEESPFVGNPGNITGARGLTGTLRCQLQVQGEPPEVHWLRDGQILELADSTQTQVPLGEDEQDDWIVVSQLRITSLQLSDTGQYQCLVFLGHQTFVSQPGYVGLEGLP
- binding to soluble αvβ3 integrin [1]: levels comparable to the mono-specific proteins; also recorded: affinities similar to its corresponding mono-specific components
- binding to soluble αvβ3 integrin ([1]; listed as 2.5D-Axl): matched that of 2.5D
- Tm (° C.) [2]: 52 ± 0.7 °C
- melting temperature (Tm) [2]: ~52 °C
- binding to Gas6 in presence of saturating αvβ3 integrin [3]: not affected; also recorded: maintains affinity to Gas6
- binding to Gas6 in presence of saturating αvβ3 integrin ([3]; listed as 2.5D-Axl): the same as when they were measured individually
- equilibrium binding to cells transfected to overexpress αvβ3 integrin [4]: consistent with that previously determined for 2.5D
- binding to αvβ3 integrin in presence of saturating Gas6 [5]: not affected; also recorded: is not lost
- binding to αvβ3 integrin in presence of saturating Gas6 ([5]; listed as 2.5D-Axl): the same as when they were measured individually
- binding of EETI 2.5D-Axl to K562-αvβ3 cells with molar excess of cRGD [6]: binding specifically to αvβ3 integrin
- binding to Gas6 ([7]; 0.2, 2 or 20 nM Gas6): levels comparable to the mono-specific proteins; also recorded: affinities similar to its corresponding mono-specific components
- binding to Gas6 ([7]; 0.2, 2 or 20 nM Gas6, listed as 2.5D-Axl): maintained wild-type Axl's affinity

B2: 2.5D-Fc: EETI-based knottin 2.5D fused to Fc domain of mouse Ig2a (protein)
chain: GCPQGRGDWAPTSCKQDSDCRAGCVCGPNGFCGEPRGPTIKPCPPCKCPAPNLLGGPSVFIFPPKIKDVLMISLSPIVTCVVVDVSEDDPDVQISWFVNNVEVHTAQTQTHREDYNSTLRVVSALPIQHQDWMSGKEFKCKVNNKDLPAPIERTISKPKGSVRAPQVYVLPPPEEEMTKKQVTLTCMVTDFMPEDIYVEWTNNGKTELNYKNTEPVLDSDGSYFMYSKLRVEKKNWVERNSYSCSVVHEGLHNHHTTKSFSRTPGK
- tendency to aggregate [8]: no tendency to aggregate
- inhibition of PC3 cell adhesion to vitronectin [9]: low nanomolar range

B3: 2.5F-Fc: EETI-based knottin 2.5F fused to Fc domain of mouse Ig2a (protein)
chain: GCPRPRGDNPPLTCKQDSDCLAGCVCGPNGFCGEPRGPTIKPCPPCKCPAPNLLGGPSVFIFPPKIKDVLMISLSPIVTCVVVDVSEDDPDVQISWFVNNVEVHTAQTQTHREDYNSTLRVVSALPIQHQDWMSGKEFKCKVNNKDLPAPIERTISKPKGSVRAPQVYVLPPPEEEMTKKQVTLTCMVTDFMPEDIYVEWTNNGKTELNYKNTEPVLDSDGSYFMYSKLRVEKKNWVERNSYSCSVVHEGLHNHHTTKSFSRTPGK
- inhibition of PC3 cell adhesion to vitronectin [9]: low nanomolar range
- affinity to sk0v3 cells [10]: greater affinity
